From the nanobody polyreactivity screen of Harvey et al. (2022)

Assay: yeast display, Sf9 membrane polyspecificity reagent, FACS + sequencing; frameworks hold sequencing errors
Summary of the method: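 Nanobodies from a synthetic yeast display library (Saccharomyces cerevisiae BJ5465), induced 36–48 hours with galactose, were stained 1 hour at 4 °C with 10% biotinylated, detergent-solubilized Sf9 membrane reagent, enriched on streptavidin microbeads, then FACS-sorted. Anti-HA (expression) and streptavidin (reagent binding) fluorescence set low and high (top ~1%) gates. Polyreactivity labels come from the gate of origin. Genes were colony-PCR amplified, MiSeq 2 × 250 sequenced and filtered by CDR length.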

With “QVQLVESGGGLVQAGGSLRLSCAASGSTLPTNAMGWYRQAPGKEREFVAAISDNGGSTYYADSVKGRFTISRDNAKNTVYLQMNSLKPEDTAVYYCAADWDESYSYRRYGHYDYWGQGTQVTVSS” the “polyreactivity (PSR sort gate)” value was “low polyreactivity”.
With “QVQLVESGGGLVQAGGSLRLSCAASGSTLRDYVMGWYRQAPGKERELVAAITSRVDDTYYADSVKGRFTISRDNAKNTVYLQMNSLKPEDTAVYYCAKRYGRFYHYDYWGQGTQVTVSS” the “polyreactivity (PSR sort gate)” value was “low polyreactivity”.
For “QVQLVESGGGLVQAGGSLRLSCAASGSTLRGNARGCYRQAPGKEREFVAAISSSGGRTYYADSVKGRFTISRDNAKNTVYLQMTSLNPEDTAVYYCAAAGYQYYFSSVPRAYYYWGQGTLVTVSS”, the “polyreactivity (PSR sort gate)” value was “high polyreactivity”.
In the case of “QVQLVESGGGLVQAGGSLRLSCAASGSTLRTYAMGWYRQAPGKERELVAAISFSTTSTYYADSVKGRFTISRDNAKNTVYLQMNSLKPEDTAVYYCAAEYWYYWEYEYWGQGTQVTVSS”, the “polyreactivity (PSR sort gate)” value is reported as “high polyreactivity”.
For “QVQLVESGGGLVQAGGSLRLSCAASGSTLRWNTMGWYRQAPGKERQLVARISKSGGSTSYADSVKGRLTISRDNAKNTVYLQMNSLKPEDTAVYYCAKTPSQGYVFSYRWGDYWGQGTQVTVSS”, the “polyreactivity (PSR sort gate)” value was “high polyreactivity”.
With “QVQLVESGGGLVQAGGSLRLSCAASGSTLSFNAMGWYRQAPGKERELVAGITYSGGSTYYADSVKGRFTISRDNAKNTVYLQMNSLKPEDTAVYYCNKSSGVYYGHLDYWGQGTQVTVSS” the “polyreactivity (PSR sort gate)” value was “low polyreactivity”.
For “QVQLVESGGGLVQAGGSLRLSCAASGSTLSGYVMGWYRQAPGKERELVAGISQSGASTYYADSVKGRFTISRDNAKNTVYLQMNSLKPEDTAVYYCAAVARYLLKYRRYGYWGQGTQVTVSS”, the “polyreactivity (PSR sort gate)” value was “high polyreactivity”.
With “QVQLVESGGGLVQAGGSLRLSCAASGSTLSQYAMGWYRQAPGKERELVAAISGGGRTYYADSVKGRFTISRDNAKNTVYLQMNSLKPEDTAVYYCAKVRLKKGTRDSYDYWGQGTQVTVSS” the “polyreactivity (PSR sort gate)” value was “high polyreactivity”.
In the case of “QVQLVESGGGLVQAGGSLRLSCAASGSTLSRYVMGWSRHAPGKERELVASISWSGTRTYYADSVKGRFTISRDNAKNTVYLQMNSLIPEDTAVYYCNAVSRGGRLYDYWGQGTQVTVSS”, the “polyreactivity (PSR sort gate)” value is reported as “high polyreactivity”.
With “QVQLVESGGGLVQAGGSLRLSCAASGSTLSWYAMGWYRQAPGKERELVAAITRGGSTYYADSVKGRFTISRDNAKNTVYLQMNSLKPEDTAVYYCNAGRDGSRFQYRYDYWGQGTQVTVSS” the “polyreactivity (PSR sort gate)” value was “low polyreactivity”.
In the case of “QVQLVESGGGLVQAGGSLRLSCAASGSTLTRHAMGWYRQAPGKERELVAAITSGGRTKYADSVKGRFTISRDNAKYTVYLHMNSLKPEDTAVYYCAKGGPPGQRGYDYWGQGTQVTVSS”, the “polyreactivity (PSR sort gate)” value is reported as “high polyreactivity”.
For “QVQLVESGGGLVQAGGSLRLSCAASGSTLVDNGMGWYRHAPGKERELVASISSDGSTNYADSVKGRFTISRDNAKYTVYLQMNSLKTEDPAVYYCAADEGTGQASLSSNLSDYWGQGTQVTVSS”, the “polyreactivity (PSR sort gate)” value was “low polyreactivity”.
In the case of “QVQLVESGGGLVQAGGSLRLSCAASGSTLVGYDMGWYRQAHGKEMELVADITSTGSTNYADSVKGSFTISRDNAKNTVYLQMNSLKPEDTAVYYCAADLYFYIYSYNYWGQGTQVTVSS”, the “polyreactivity (PSR sort gate)” value is reported as “low polyreactivity”.
For “QVQLVESGGGLVQAGGSLRLSCAASGSTLVIYAMGWSRQAPGKEREFVAAIRWSTGRTYYADSVKGRFTISRDNAKNTVYLQMNSLKPEDTAVYYCNASYWAPNSLPDGFRYDSWGQGTQVTVSS”, the “polyreactivity (PSR sort gate)” value was “high polyreactivity”.
For “QVQLVESGGGLVQAGGSLRLSCAASGSTLVKYAMGWYRQAPGKERELVARITLNGGRTYYADSVKGRFTISRDNAKNTVYLQMNSLKPEDTAVYYCAKSLPHSTSRDYWGQGTQVTVSS”, the “polyreactivity (PSR sort gate)” value was “low polyreactivity”.
With “QVQLVESGGGLVQAGGSLRLSCAASGSTLVLNAMGWYRQAPGKERELVAAITISGDTTYYADSVKGRFTISRDNAKNTVYLQMNSLKPEDTAVYYCAAVVSTVDGMEYWGQGTQVTVSS” the “polyreactivity (PSR sort gate)” value was “low polyreactivity”.
For “QVQLVESGGGLVQAGGSLRLSCAASGSTLVTNAMGWYRQAPGKERELVAAITFSGGTTYYADSVKGRFTISRDNAKNTFYLQMNSLKPEDTAVYYCAAEIWLEYVGYDYWGQGTQVTVSS”, the “polyreactivity (PSR sort gate)” value was “high polyreactivity”.
In the case of “QVQLVESGGGLVQAGGSLRLSCAASGSTLVTYAMGWYRQAPGKERELVAAISWRGGSTYYADSVKGRFTISRDNAKNTVYLQMNSLKPEDTAVYYCIKLRAYKESETYYYWGQGTQVTVSS”, the “polyreactivity (PSR sort gate)” value is reported as “low polyreactivity”.
With “QVQLVESGGGLVQAGGSLRLSCAASGSTLVYNDMGWYRQAPGKEREFVAAIRSNDGSTYYADSVKGRFTISRDNAKNTVYLQMNSLKPEDTAVYYCATTQAYRGENYNYWGQGTQVTVSS” the “polyreactivity (PSR sort gate)” value was “low polyreactivity”.
With “QVQLVESGGGLVQAGGSLRLSCAASGSTLWDYAMGWYRQAPGKERELVAAITQDGGSTYYADSVKGRFTISRDNAKNTVYLQMNSLKPEDTAVYYCAAEYWYDGGGYWGQGTQVTVSS” the “polyreactivity (PSR sort gate)” value was “low polyreactivity”.
In the case of “QVQLVESGGGLVQAGGSLRLSCAASGSTLYDYTMGWYRQAPGKERELVAAIRVSGARTFYADSVKGRFTISRDNAKNTVYLQMNSLKPEDTAVYYCAAEFGSFVSPYNYYYWGQGTQVTVSS”, the “polyreactivity (PSR sort gate)” value is reported as “low polyreactivity”.
With “QVQLVESGGGLVQAGGSLRLSCAASGSTLYTYAMGWYRQAPGKERELVADISTGGSTYYADSVKGRFTISRDNAKNTVYLQMNSLKPEDTAVYYCAAESWFDPVDYWGQGTQVTVSS” the “polyreactivity (PSR sort gate)” value was “low polyreactivity”.
In the case of “QVQLVESGGGLVQAGGSLRLSCAASGSTLYTYAMGWYRQAPGKERELVATISWSGSSTYYADSVKGRFTISRDNAKNTVYLQMNSLKPEDTAVYYCNKVPGKSGVPPDYDYWGQGTQVTVSS”, the “polyreactivity (PSR sort gate)” value is reported as “high polyreactivity”.
With “QVQLVESGGGLVQAGGSLRLSCAASGSTLYYYAMGWSRQAPGKERELVAAISWSGGITYYADSVKGRFTISRDNAKNTVYLQMNSLKPEDTAVYYCAADKYQGYTFYQGYPGGGGYWGQGTQVTVSS” the “polyreactivity (PSR sort gate)” value was “low polyreactivity”.
For “QVQLVESGGGLVQAGGSLRLSCAASGSTNVVNAMGRYRQPPGKERELVAAITYSGGSTYYADSVKGRFTISRDNAKNTVYLQQNSLKPEDTAVYYCNTTLRDSRQYVDRAPYTRYDYWGQGTQVTVSS”, the “polyreactivity (PSR sort gate)” value was “low polyreactivity”.
In the case of “QVQLVESGGGLVQAGGSLRLSCAASGSTRYNAKGWYRQAPGNERELVASIRGNAGSTYYADSVKGRFTISRDNAKNTVYLQMNSLKPEDTAVYYCNARYWYRYGGYKPVGGYYWGQGTQVTVSS”, the “polyreactivity (PSR sort gate)” value is reported as “high polyreactivity”.
For “QVQLVESGGGLVQAGGSLRLSCAASGSTRYNAMGWYRQAPGKERELVASIRGNAGSTYYADSVKGRFTISRDNAKNTVYLQMNSLKPEDTAVYYCNARYWYRYGGYKPVGGYYWGQGTQVTVSS”, the “polyreactivity (PSR sort gate)” value was “high polyreactivity”.
For “QVQLVESGGGLVQAGGSLRLSCAASGSTSANYAMGWYRPAPGKERELVAAISGGARTNYADSVKGRFTISRDNAKNTVYLQMNSLKPEDTAVYYCATDAYYYNLLYLFPRYDYWGQGTQVTVSS”, the “polyreactivity (PSR sort gate)” value was “low polyreactivity”.
With “QVQLVESGGGLVQAGGSLRLSCAASGSTSGPYAMGWYRQAPGKETELVATISWIGDRTYYADSVKGRFTISRDNAKNTIYLQMNSLKPEDTAVYYCNADYRGYANLEGDYWGQGTQVTVSS” the “polyreactivity (PSR sort gate)” value was “low polyreactivity”.
For “QVQLVESGGGLVQAGGSLRLSCAASGSTSGSYGMGWYRQAPGKERELVAAIRWSGGRTYYADSVKGRFTISRDNAKNTVYLQMNSLKPEDTAVYYCAKYRYTVAGYNYWGQGTQVTVSS”, the “polyreactivity (PSR sort gate)” value was “high polyreactivity”.
With “QVQLVESGGGLVQAGGSLRLSCAASGSTSIYYTMGWYRQAPGKERELVAYADSVKGRFTISRDNAKNTVYLQMNRLKPEDTAGYYCAAPRTYYSELTSPYDYWGQGAQVTVSS” the “polyreactivity (PSR sort gate)” value was “low polyreactivity”.
With “QVQLVESGGGLVQAGGSLRLSCAASGSTSKSYTMGWYRQAPGKERELVAAISYSGVSTYYADSVKGRFTISRDNAKNTVYLQMNSLKPEDTAVYYCAKRTRKYTVGYYYWGQGTQVTVSS” the “polyreactivity (PSR sort gate)” value was “high polyreactivity”.
With “QVQLVESGGGLVQAGGSLRLSCAASGSTSKWYAMGWYRPAPGKERELVAAITKTGGRTYYADSVKGRFTISRDNAKNTVYLQMNSLKPEDTAVYYCAVEYLRGFIVIYDYWGQGTQVTVSS” the “polyreactivity (PSR sort gate)” value was “high polyreactivity”.
For “QVQLVESGGGLVQAGGSLRLSCAASGSTSLIYAMGWYRQAPGKERELVARISGSGGSTFYADSVKGRFTISRDNAKNTVFLQMNSLKPEDTAVYYCAAYIRGRRYNWATVGYNYWGQGTQVTVSS”, the “polyreactivity (PSR sort gate)” value was “high polyreactivity”.
With “QVQLVESGGGLVQAGGSLRLSCAASGSTSPIYAMGWYRQAPGKERELVAAINGVGSTNYADSVKGRFTISRDNAKNTVYLQMNSLKPEDTAVYYCNTRYSPGYQGTEVDYWGQGTQVTVSS” the “polyreactivity (PSR sort gate)” value was “low polyreactivity”.
With “QVQLVESGGGLVQAGGSLRLSCAASGSTSQPYAMGWYRQAPGQERELVASITNGGITYYADSVKGRFTISRDNAKNTVYLQMNSLKPEDTAVYYCNTVSYTEFDYWGQGTQVTVSS” the “polyreactivity (PSR sort gate)” value was “low polyreactivity”.
For “QVQLVESGGGLVQAGGSLRLSCAASGSTSRGNAMAWYRKSPGKERELVATISQSGGNTFYADSVKGRFTISLDNAKNTVYLQMNSLNPEDTAVYYCAAGRYWFAWYDYWGQGTQVTVSS”, the “polyreactivity (PSR sort gate)” value was “high polyreactivity”.
In the case of “QVQLVESGGGLVQAGGSLRLSCAASGSTSRLYAMGWYSQAPGKERELVAAIRYSSGTTYYADSVTVRFTISRDNAKNTVYLQMNSLKPEDTAVYYCAAVTIRRYGPAEYNYWGQGTQVTVSS”, the “polyreactivity (PSR sort gate)” value is reported as “high polyreactivity”.
With “QVQLVESGGGLVQAGGSLRLSCAASGSTSRSYTMGWYRQAPGKEREFVASIRWSGGRTYNADSVKGRFTISRDNAKNTVYLQMNSLKPEDTAVYYCNADYYRLRFRLGWYDYWGQGTQVTVSS” the “polyreactivity (PSR sort gate)” value was “high polyreactivity”.
In the case of “QVQLVESGGGLVQAGGSLRLSCAASGSTSRVYAMGWYRQAPGKERELVAAINKSGTRTYYADSVKGRFTISRDNAKNTVYLQMNSLKPEDTAVYYCAADQGTYGYGGFYYWGQGTQVTVSS”, the “polyreactivity (PSR sort gate)” value is reported as “high polyreactivity”.
With “QVQLVESGGGLVQAGGSLRLSCAASGSTSRYYDMGWYRQAPGKERELVAAITWSGGTTYYADSVKGRFTISRDNAKNTVYLQMDSLKPEDTAVYYCAVDSQTANDYDYWGQGTQVTVSS” the “polyreactivity (PSR sort gate)” value was “low polyreactivity”.
With “QVQLVESGGGLVQAGGSLRLSCAASGSTSSTYAKGWYRQAPGKERELVATINWDGASTYYADSVKGRFTISRDNATNTVYLQMNSLKPEDTAVYYCAAQSGAVHFLEDDYWGQGTQVTVSS” the “polyreactivity (PSR sort gate)” value was “low polyreactivity”.
With “QVQLVESGGGLVQAGGSLRLSCAASGSTSTRYAMGWYRPAPGKERELVAAISKSGGRTYYADSVKGRFTMSRDNAKNTVYLQMNSLKPEDTAVYYCNTVPGRYRTFDYWGQGTQVTVSS” the “polyreactivity (PSR sort gate)” value was “high polyreactivity”.
